Here are results for one substance from US20200165313A1, “EGF(A) ANALOGUES, PREPARATION, FORMULATIONS AND USES THEREOF” (Novo Nordisk A/S, priority 2017, published 2020).

The target of the assay is hPCSK9 (Sino Biologicals, China) (human) (UniProt Q8NBP7). Put plainly: cell-based or functional assay.

For the substance Alirocumab (antibody), the hepatic LDL-R expression, Percentage of baseline (%), mouse hPCSK9 challenge, inhibitor 22 nmol/kg was found to be 157%.
